Results from paper PMC4594993.

Target: extracellular domain of basigin (CD147-ED)
Assay: SPR; ProteOn XPR36, CD147-ED immobilised on an activated GLC chip; CD98-ED injected at 0, 3, 1.5, 0.75, 0.375, 0.1875 uM, association 180 s, dissociation 600 s; 1:1 binding model

Kd: 187 nM
Substance: extracellular domain of CD98 (CD98-ED, residues 111-530 of human 4F2hc) (domain or fragment)
